Substitutions are numbered along the chain they refer to. In names and notes the source's numbering stands. No end group written: not given here. TMR = tetramethyl rhodamine dye
Legend:
Assay in all cases: fluorescence polarisation; 37 °C, after the 25 °C reading ramped over 7 min to 37 °C and 2 min incubation; unlabeled Rb^P against 1.5 nM TMR-E2F1^TD or 7.5 nM TMR-E7^LxCxE; 25 mM Tris pH 8.0, 200 mM NaCl, 1 mM DTT, 0.1% Tween-20; apparent Kd
Conditions in all cases: both partners purified
Rb^P A488V = target: T1, Rb^P A488V (human, UniProt P06400 380-788, A488V)
T1 construct: also called variant 14
T1 sequence (looked up): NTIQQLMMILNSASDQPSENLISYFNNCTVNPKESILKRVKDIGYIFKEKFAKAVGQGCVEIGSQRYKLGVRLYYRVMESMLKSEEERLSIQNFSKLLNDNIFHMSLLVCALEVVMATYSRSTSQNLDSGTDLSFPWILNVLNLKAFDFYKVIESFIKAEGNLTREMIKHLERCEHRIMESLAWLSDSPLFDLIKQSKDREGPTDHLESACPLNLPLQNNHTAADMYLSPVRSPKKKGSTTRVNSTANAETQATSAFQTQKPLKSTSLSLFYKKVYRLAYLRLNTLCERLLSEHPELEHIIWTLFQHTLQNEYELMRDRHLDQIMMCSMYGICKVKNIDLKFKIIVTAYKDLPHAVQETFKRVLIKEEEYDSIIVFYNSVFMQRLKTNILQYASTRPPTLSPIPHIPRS

Rb^P A490T = target: T2, Rb^P A490T (human, UniProt P06400 380-788, A490T)
T2 construct: also called variant 16
T2 sequence (looked up): T1 sequence (looked up) with V109A, A111T

Rb^P S588F = target: T3, Rb^P S588F (human, UniProt P06400 380-788, S588F)
T3 construct: also called variant 34
T3 sequence (looked up): T1 sequence (looked up) with V109A, S209F

Rb^P R656W = target: T4, Rb^P R656W (human, UniProt P06400 380-788, R656W)
T4 construct: also called variant 49
T4 sequence (looked up): T1 sequence (looked up) with V109A, R277W

Rb^P I703F = target: T5, Rb^P I703F (human, UniProt P06400 380-788, I703F)
T5 construct: also called variant 64
T5 sequence (looked up): T1 sequence (looked up) with V109A, I324F

B1: TMR-E2F1^TD, peptide of the E2F1 transactivation domain (peptide)
peptide: {TMR}-GEGIRDLFDCDFGDLTPLD
notes: also called E2F^TD; source: synthetic peptide, bought: GenScript
Binder B1 has a Kd (Rb^P A488V) of 78 nM, a Kd (Rb^P A490T) of 115 nM and a Kd (Rb^P S588F) of 51 nM. It also gave a Kd (Rb^P R656W) of 77 nM and a Kd (Rb^P I703F) of 396 nM.

B2: TMR-E7^LxCxE, LxCxE peptide of the E7 oncoprotein from HPV (peptide)
peptide: DLYCYEQLN
modifications: also: TMR label, position not given here
notes: source: synthetic peptide, bought: GenScript
Work on B2 yielded a Kd (Rb^P A488V) of 19 nM, a Kd (Rb^P A490T) of 33 nM and a Kd (Rb^P S588F) of 16 nM. For the same binder, the Kd (Rb^P R656W) was 19 nM and the Kd (Rb^P I703F) was 275 nM.

Reference: paper PMC11931385, “Structural and functional analysis of cancer-associated missense variants in the retinoblastoma protein pocket domain” (The Journal of Biological Chemistry, 2025)
